We go through 1 protein from doi:10.1101/538884 (bioRxiv, 2019).

The data set deals with the molecule itself. As to the kind of experiment: SEC. (SEC sorts molecules by how far they enter the pores of the column.)

B1: HEV^440-691 (hepatitis E virus ORF1 residues 440-691) (domain or fragment, Hepatitis E virus (HEV), UniProt P33424 440-691, looked up)
chain: AGFHLDPRVLVFDESAPCHCRTAIRKAVSKFCCFMKWLGQECTCFLQPAEGVVGDQGHDNEAYEGSDVDPAESAISDISGSYVVPGTALQPLYQALDLPAEIVARAGRLTATVKVSQVDGRIDCETLLGNKTFRTSFVDGAVLETNGPERHNLSFDASQSTMAAGPFSLTYAASAAGLEVRYVAAGLDHRAVFAPGVSPRSAPGEVTAFCSALYRFNREAQRLSLTGNFWFHPEGLLGPFAPFSPGHVWESA
Consider B1, for which the binding result is “binds”.
